{"source": "patent US11447566B2", "about": "“Anti-tissue factor antibodies, antibody-drug conjugates, and related methods” (Iconic Therapeutics, Inc., priority 2018, dated 2022)", "assay_in_all_cases": "Live cell staining assay on chimeric TF constructs (epitope binning)", "format_in_all_cases": "cell-based", "key": {"[1]": {"molecular_target": "T1, human, rat and chimeric human-rat TF constructs expressed on HEK293 cells (Homo sapiens, UniProt P13726)", "T1 construct": "expressed in transfected cells; host or cells: HEK293", "settings": "construct hTF", "description": "(§1) To establish binding of the anti-human TF antibodies to the various TF constructs, HEK293 cells were transfected with a DNA plasmid that co-expresses the TF construct and a green fluorescent protein marker. […] Two days after transfection, cells were collected from the tissue culture plate, stained with 15 μg/ml of the indicated anti-TF antibody, washed, stained with anti-human IgG-Fc Alexa Fluor 647 polyclonal antibody, washed, and stained with the viability dye 4′,6-Diamidino-2-Phenylindole, Dihydrochloride. Upon acquisition of 80,000 live events on a flow cytometer, live cells marked with the fluorescent marker were analyzed for the degree of staining by the anti-TF antibody. […] As used herein, the term “live cell staining assay” refers to the antibody binding assay used in this example.\n(§2) When “Percentage antibody binding to TF construct relative to hTF” in Tables 51 and 52 was less than 50%, the antibody was considered a non-binder (0) in Tables 53 and 54.\n(§3) Each antibody was assigned to an epitope bin in Table 55 based on the combination of unbound constructs from Table 53."}, "[2]": {"molecular_target": "T2, human, rat and chimeric human-rat TF constructs expressed on HEK293 cells (Homo sapiens, UniProt P13726, A112W/A121G/E116T/E127T/E131K/E137D/G113R/G119T/G122E/L125P/L136R/N139K/P130R/S117H/S120H/S129A/T118G/T133L/V115S/Y110V/Y126F)", "T2 construct": "expressed in transfected cells; host or cells: HEK293", "settings": "construct h78-107_r (21), human segment replaced by rat segment", "description": "as §1, §2, §3"}, "[3]": {"molecular_target": "T3, human, rat and chimeric human-rat TF constructs expressed on HEK293 cells (Homo sapiens, UniProt P13726, A200N/K201T/N203H)", "T3 construct": "expressed in transfected cells; host or cells: HEK293", "settings": "construct h167-174_r (3), human segment replaced by rat segment", "description": "as §1, §2, §3"}, "[4]": {"molecular_target": "T4, human, rat and chimeric human-rat TF constructs expressed on HEK293 cells (Homo sapiens, UniProt P13726, D177Q/N170G/R168K/S174T)", "T4 construct": "expressed in transfected cells; host or cells: HEK293", "settings": "construct h133-145_r (4), human segment replaced by rat segment", "description": "as §1, §2, §3"}, "[5]": {"molecular_target": "T5, human, rat and chimeric human-rat TF constructs expressed on HEK293 cells (Homo sapiens, UniProt P13726, D177Q/S174T)", "T5 construct": "expressed in transfected cells; host or cells: HEK293", "settings": "construct h140-145_r (2), human segment replaced by rat segment", "description": "as §1, §2, §3"}, "[6]": {"molecular_target": "T6, human, rat and chimeric human-rat TF constructs expressed on HEK293 cells (Homo sapiens, UniProt P13726, D212E/E215V/N216S/S220F/V221A)", "T6 construct": "expressed in transfected cells; host or cells: HEK293", "settings": "construct h175-189_r (5), human segment replaced by rat segment", "description": "as §1, §2, §3"}, "[7]": {"molecular_target": "T7, human, rat and chimeric human-rat TF constructs expressed on HEK293 cells (Homo sapiens, UniProt P13726, E127T/E131K/E137D/L136R/N139K/P130R/S129A/T133L/Y126F)", "T7 construct": "expressed in transfected cells; host or cells: HEK293", "settings": "construct h94-107_r (9), human segment replaced by rat segment", "description": "as §1, §2, §3"}, "[8]": {"molecular_target": "T8, human, rat and chimeric human-rat TF constructs expressed on HEK293 cells (Homo sapiens, UniProt P13726, K181N)", "T8 construct": "expressed in transfected cells; host or cells: HEK293", "description": "as §1, §2, §3"}, "[9]": {"molecular_target": "T9, human, rat and chimeric human-rat TF constructs expressed on HEK293 cells (Homo sapiens, UniProt P13726, N170G/R168K)", "T9 construct": "expressed in transfected cells; host or cells: HEK293", "settings": "construct h133-139_r (2), human segment replaced by rat segment", "description": "as §1, §2, §3"}, "[10]": {"molecular_target": "T10, human, rat and chimeric human-rat TF constructs expressed on HEK293 cells (Homo sapiens, UniProt P13726, N203H/T229K)", "T10 construct": "expressed in transfected cells; host or cells: HEK293", "settings": "construct hTF_N171H_T197K", "description": "as §1, §2, §3"}, "[11]": {"molecular_target": "T11, human, rat and chimeric human-rat TF constructs expressed on HEK293 cells (Homo sapiens, UniProt P13726, S192D)", "T11 construct": "expressed in transfected cells; host or cells: HEK293", "settings": "construct h159-219_r (27), human segment replaced by rat segment", "description": "as §1, §2, §3"}, "[12]": {"molecular_target": "T12, human, rat and chimeric human-rat TF constructs expressed on HEK293 cells (Rattus norvegicus, UniProt P42533)", "T12 construct": "expressed in transfected cells; host or cells: HEK293", "settings": "construct rTF", "description": "as §1, §2, §3"}, "[13]": {"molecular_target": "T13, human, rat and chimeric human-rat TF constructs expressed on HEK293 cells (Rattus norvegicus, UniProt P42533, A222V/D193S/E213D/F221S/G171N/G185I/H204N/I187T/K169R/N182K/N201A/Q178D/R191W/R198K/S217N/T175S/T189Y/T196S/T202K/V216E)", "T13 construct": "expressed in transfected cells; host or cells: HEK293", "settings": "construct r141-194_h, rat amino acid segment replaced by human segment (20 amino acid changes)", "description": "as §1, §2, §3"}, "[14]": {"system": "human, rat and chimeric human-rat TF constructs expressed on HEK293 cells", "settings": "for Antibody binding to TF construct: human segment replaced by rat segment", "description": "as §1, §2, §3"}}, "data": [{"substance": "TF-011 [reference compound]", "values": [{"measurement": "Antibody binding to TF construct", "setting": "[1]; Table 54", "result": "1 (between 50% and 150%, the antibody was considered a binder (1))"}, {"measurement": "Antibody binding to TF construct", "setting": "[1]", "result": "1 (between 50% and 150%, the antibody was considered a binder (1))"}, {"measurement": "Antibody binding to TF construct", "setting": "[2]", "result": "0 (less than 50%, the antibody was considered a non-binder (0))"}, {"measurement": "Antibody binding to TF construct", "setting": "[3]", "result": "1 (between 50% and 150%, the antibody was considered a binder (1))"}, {"measurement": "Antibody binding to TF construct", "setting": "[4]", "result": "1 (between 50% and 150%, the antibody was considered a binder (1))"}, {"measurement": "Antibody binding to TF construct", "setting": "[5]", "result": "1 (between 50% and 150%, the antibody was considered a binder (1))"}, {"measurement": "Antibody binding to TF construct", "setting": "[6]", "result": "1 (between 50% and 150%, the antibody was considered a binder (1))"}, {"measurement": "Antibody binding to TF construct", "setting": "[7]", "result": "0 (less than 50%, the antibody was considered a non-binder (0))"}, {"measurement": "Antibody binding to TF construct", "setting": "[8]; construct h146-151_r (1), human segment replaced by rat segment", "result": "1 (between 50% and 150%, the antibody was considered a binder (1))"}, {"measurement": "Antibody binding to TF construct", "setting": "[8]; construct hTF_K149N", "result": "1 (between 50% and 150%, the antibody was considered a binder (1))"}, {"measurement": "Antibody binding to TF construct", "setting": "[9]", "result": "1 (between 50% and 150%, the antibody was considered a binder (1))"}, {"measurement": "Antibody binding to TF construct", "setting": "[10]", "result": "1 (between 50% and 150%, the antibody was considered a binder (1))"}, {"measurement": "Antibody binding to TF construct", "setting": "[11]", "result": "1 (between 50% and 150%, the antibody was considered a binder (1))"}, {"measurement": "Antibody binding to TF construct", "setting": "[12]; Table 54", "result": "0 (less than 50%, the antibody was considered a non-binder (0))"}, {"measurement": "Antibody binding to TF construct", "setting": "[12]", "result": "0 (less than 50%, the antibody was considered a non-binder (0))"}, {"measurement": "Antibody binding to TF construct", "setting": "[13]", "result": "0 (less than 50%, the antibody was considered a non-binder (0))"}, {"measurement": "Epitope Bin", "setting": "[14]; assignment based on unbound chimeric constructs", "result": 1}, {"measurement": "Constructs not bound by antibody", "setting": "[14]; chimeric human-rat TF constructs of Table 53", "result": "rTF, h1-107_r, h1-77_r, h39-77_r, h78-107_r, h78-107_r.v2, h94-107_r"}, {"measurement": "Antibody binding to TF construct", "setting": "[14]; construct h1-38_r (14)", "result": "1 (between 50% and 150%, the antibody was considered a binder (1))"}, {"measurement": "Antibody binding to TF construct", "setting": "[14]; construct h1-77_r (25)", "result": "0 (less than 50%, the antibody was considered a non-binder (0))"}, {"measurement": "Antibody binding to TF construct", "setting": "[14]; construct h1-107_r (52)", "result": "0 (less than 50%, the antibody was considered a non-binder (0))"}, {"measurement": "Antibody binding to TF construct", "setting": "[14]; construct h78-93_r (18)", "result": "1 (between 50% and 150%, the antibody was considered a binder (1))"}, {"measurement": "Antibody binding to TF construct", "setting": "[14]; construct h78-107_r.v2 (27)", "result": "0 (less than 50%, the antibody was considered a non-binder (0))"}]}]}
